From publication doi:10.1101/2024.01.08.574761 (bioRxiv, 2024)

Target: Claspin C-terminal polypeptide #18 (897-1339aa), 3x Flag, dephosphorylated with λPPase (human, UniProt Q9HAW4 897-1339, dephosphorylated with λPPase)
Experiment: native gel or EMSA

Sequence of Claspin C-terminal polypeptide #18 (897-1339aa), 3x Flag, dephosphorylated with λPPase (Q9HAW4 897-1339): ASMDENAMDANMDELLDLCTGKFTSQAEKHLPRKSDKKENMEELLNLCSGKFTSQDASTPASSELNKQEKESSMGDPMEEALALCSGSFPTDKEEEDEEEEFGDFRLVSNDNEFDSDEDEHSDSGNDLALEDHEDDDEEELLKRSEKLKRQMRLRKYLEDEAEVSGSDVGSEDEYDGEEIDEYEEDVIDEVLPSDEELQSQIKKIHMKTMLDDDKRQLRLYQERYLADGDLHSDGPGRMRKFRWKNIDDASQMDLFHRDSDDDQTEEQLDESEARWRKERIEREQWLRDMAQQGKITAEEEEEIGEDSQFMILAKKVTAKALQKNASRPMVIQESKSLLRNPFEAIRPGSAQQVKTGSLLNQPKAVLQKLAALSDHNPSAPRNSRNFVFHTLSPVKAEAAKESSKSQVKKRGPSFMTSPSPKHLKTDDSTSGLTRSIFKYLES

B1: Claspin N-terminal polypeptide #2 (1-350aa), dephosphorylated with λPPase (domain or fragment)
chain: MTGEVGSEVHLEINDPNVISQEEADSPSDSGQGSYETIGPLSEGDSDEEIFVSKKLKNRKVLQDSDSETEDTNASPEKTTYDSAEEENKENLYAGKNTKIKRIYKTVADSDESYMEKSLYQENLEAQVKPCLELSLQSGNSTDFTTDRKSSKKHIHDKEGTAGKAKVKSKRRLEKEERKMEKIRQLKKKETKNQEDDVEQPFNDSGCLLVDKDLFETGLEDENNSPLEDEESLESIRAAVKNKVKKHKKKEPSLESGVHSFEEGSELSKGTTRKERKAARLSKEALKQLHSETQRLIRESALNLPYHMPENKTIHDFFKRKPRPTCHGNAMALLKSSKYQSSHHKEIIDT
modifications: dephosphorylated with λPPase
binding result: binds
